Results from US6881719B2, “β-turn peptidomimetic cyclic compounds” (McGill University, priority 2000, dated 2005).
Values joined by “and” are separate entries in the source; they are usually repeats but may differ in a detail not shown here. Equal values may be shown once. Positions of bridges follow the written chain, without caps; N, C: chain ends. Non-standard residues stand in square brackets, D forms with d. 5‑nitrobenzoyl = N-terminal 5-nitrobenzoyl group, introduced by coupling 2-fluoro-5-nitrobenzoyl chloride; hSer = N[C@@H](CCO)C(=O)O

How the values were obtained:
[1] = tested on: B104 cells; assay: Cell survival control, B104 cells; format: cell-based, rat
From the text: (§1) The 4-3.6 cells are B104 cells stably transfected with human trkA cDNA, and express equal levels of p75 and TrkA (TrkA+ p75+). For screening agents that activate or antagonize TrkC receptors, NIH3T3 fibroblasts were stably transfected with human TrkC cDNA. These cells respond to the ligand NT-3. For screening agents that activate or antagonize TrkA receptors, NIH3T3 fibroblasts were stably transfected with human TrkA cDNA. These cells respond to the ligand NGF.
(§2) Cell lines: 5,000 cells/well in protein-free media (PFHM-II, GIBCO, Toronto) containing 0.2% bovine serum albumin (BSA) (Crystalline fraction V, Sigma, St. Louis, Mo.) were seeded in 96 well plates (Falcon, Mississauga, Ontario). The cultures were untreated, or treated with the indicated test or control ligands. Cell viability was quantitated using the MTT assay after 56-72 hours of culture. […] The OD of untreated cells were subtracted. The higher optical density of untreated primary cultures is likely due to cellular heterogeneity and to endogenous production of limiting amounts of growth factors.

[2] = tested on: wild type NIH3T3 fibroblasts; assay: Cell survival (MTT), NIH wt; format: cell-based; settings: 72 hours
From the text: as §1, §2

[3] = tested on: septal neuronal cultures; assay: ChAT activity in septal neuronal cultures; format: cell-based, rat; settings: day 8
Method: Cell cultures were established from the septal area of 17-day-old rat embryos. In brief, tissue was incubated in PBS containing trypsin and DNase. Tissue pieces then were mechanically dissociated. After centrifugation, the pellet was suspended in Leibovitz's L-15 medium. Cells were plated onto 96-multiwell NUNC dishes (10^5 cells/well) coated with poly-D-lysine (5 μg/ml). Pure cultures of septal neurons were treated 1 day after plating. Drugs, prepared in medium, were added directly to the cells without changing the initial medium. The incubation continued for 8 days, at which time ChAT activity was evaluated.
At day 8 of culture, the medium was aspirated, and ice-cold lysis buffer (10 mM sodium phosphate, pH 7.4/0.1% TritonX-100—Trade-mark) was added. ChAT activity assays were performed directly in the wells using Fonnum's method (Fonnum, 1975).

[4] = tested on: wild type HEK293 cells; assay: Cell survival control, wild type HEK293 cells; format: cell-based
Method: as §2

[5] = tested on: TrkB-expressing HEK293 cells; assay: Cell survival control, TrkB-expressing HEK293 cells; format: cell-based
Method: as §2

[6] = Proteolytic stability, then trophic assay on 4-3.6 cells; settings: exposure to trypsin or pepsin (D3: 1 hour)
Method: The proteolytic stability of D3 versus trypsin and papain was assessed. D3 was first exposed to enzymatic treatment as described previously (Saragovi et al., 1992), followed by gauging its biological activity on 4-3.6 cells.

[7] = tested on: embryonic rat DRG primary neuronal cultures; assay: Cell survival (MTT), primary DRG cultures; format: cell-based; settings: 8 days;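 for % Protection: 100% equals survival with optimal NGF at 1 nM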
Method: Fetal rat DRG primary cultures were established from Sprague Dawley day 17 rat embryos. All ganglia were dissected and dissociated first enzymatically with trypsin and then mechanically. Dissociated cells were cultured (10^5 cells/well) in 96 well plates pre-coated with collagen, and grown for a total of 8 days in Neuro Basal Medium containing N2 supplement (GIBCO, Toronto), antibiotics, and L-glutamine. These DRG cultures are ˜85% TrkA-expressing and are heavily dependent on TrkA signals for survival.
Primary DRG cultures: After a total of 8 days of culture with the indicated test or control ligands, cell survival were studied using the 3(4,5-Dimethylthiazolyl-2)-2,5-diphenyl tetrazolium bromide colorimetric (MTT) assay, and by microscopic observation.
as §2

[8] = target: T1, NIH3T3 fibroblasts expressing TrkC (Homo sapiens, UniProt Q16288); assay: Cell survival (MTT), NIH-TrkC; format: cell-based; settings: 72 hours
T1 construct: expressed in transfected cells; host or cells: NIH3T3 fibroblasts
T1 sequence (Q16288 32-839): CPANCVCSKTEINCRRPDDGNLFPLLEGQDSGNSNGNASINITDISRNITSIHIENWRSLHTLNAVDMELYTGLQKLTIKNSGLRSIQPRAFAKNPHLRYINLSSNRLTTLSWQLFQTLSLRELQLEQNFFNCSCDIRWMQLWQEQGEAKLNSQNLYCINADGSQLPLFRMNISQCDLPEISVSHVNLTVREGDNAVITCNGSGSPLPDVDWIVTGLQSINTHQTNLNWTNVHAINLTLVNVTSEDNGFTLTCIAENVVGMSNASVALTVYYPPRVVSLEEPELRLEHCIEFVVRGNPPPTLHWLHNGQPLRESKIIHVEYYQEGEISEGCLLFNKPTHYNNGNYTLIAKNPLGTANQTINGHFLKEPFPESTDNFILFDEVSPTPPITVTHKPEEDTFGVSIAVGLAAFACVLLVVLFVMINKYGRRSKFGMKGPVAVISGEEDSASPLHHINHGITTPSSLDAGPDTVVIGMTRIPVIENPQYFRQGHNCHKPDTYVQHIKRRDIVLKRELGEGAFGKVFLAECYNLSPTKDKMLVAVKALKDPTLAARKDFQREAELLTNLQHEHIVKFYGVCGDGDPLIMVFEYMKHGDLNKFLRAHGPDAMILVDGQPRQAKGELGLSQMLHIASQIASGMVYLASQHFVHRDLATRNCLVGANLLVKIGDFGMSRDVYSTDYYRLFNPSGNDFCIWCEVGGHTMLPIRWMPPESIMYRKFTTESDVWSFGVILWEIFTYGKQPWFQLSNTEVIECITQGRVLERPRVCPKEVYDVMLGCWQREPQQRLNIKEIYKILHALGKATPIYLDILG
From the text: as §1, §2

[9] = target: p75 NGF receptor on B104 rat neuroblastoma cells and 4-3.6 cells (rat) (UniProt P07174); assay: FACScan, B104 cells (p75+ TrkA-), avidin-FITC
p75 NGF receptor on B104 rat neuroblastoma cells and 4-3.6 cells (rat), sequence (P07174 30-425): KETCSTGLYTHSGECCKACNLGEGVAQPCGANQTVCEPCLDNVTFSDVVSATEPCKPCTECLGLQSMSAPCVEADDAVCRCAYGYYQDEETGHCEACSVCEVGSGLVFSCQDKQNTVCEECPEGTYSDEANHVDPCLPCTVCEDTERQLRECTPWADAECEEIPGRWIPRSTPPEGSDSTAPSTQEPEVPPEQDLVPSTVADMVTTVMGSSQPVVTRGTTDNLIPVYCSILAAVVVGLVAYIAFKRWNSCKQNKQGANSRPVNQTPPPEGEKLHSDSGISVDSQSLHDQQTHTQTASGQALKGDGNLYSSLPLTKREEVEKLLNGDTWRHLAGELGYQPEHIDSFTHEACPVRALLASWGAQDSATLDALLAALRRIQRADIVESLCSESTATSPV

[10] = target: human TrkA expressed on transfected cells (4-3.6 cells; NIH3T3-TrkA cells) (human) (UniProt P04629); assay: FACScan, 4-3.6 cells (p75+ TrkA+), avidin-FITC
human TrkA expressed on transfected cells (4-3.6 cells; NIH3T3-TrkA cells) (human), sequence (P04629 33-796): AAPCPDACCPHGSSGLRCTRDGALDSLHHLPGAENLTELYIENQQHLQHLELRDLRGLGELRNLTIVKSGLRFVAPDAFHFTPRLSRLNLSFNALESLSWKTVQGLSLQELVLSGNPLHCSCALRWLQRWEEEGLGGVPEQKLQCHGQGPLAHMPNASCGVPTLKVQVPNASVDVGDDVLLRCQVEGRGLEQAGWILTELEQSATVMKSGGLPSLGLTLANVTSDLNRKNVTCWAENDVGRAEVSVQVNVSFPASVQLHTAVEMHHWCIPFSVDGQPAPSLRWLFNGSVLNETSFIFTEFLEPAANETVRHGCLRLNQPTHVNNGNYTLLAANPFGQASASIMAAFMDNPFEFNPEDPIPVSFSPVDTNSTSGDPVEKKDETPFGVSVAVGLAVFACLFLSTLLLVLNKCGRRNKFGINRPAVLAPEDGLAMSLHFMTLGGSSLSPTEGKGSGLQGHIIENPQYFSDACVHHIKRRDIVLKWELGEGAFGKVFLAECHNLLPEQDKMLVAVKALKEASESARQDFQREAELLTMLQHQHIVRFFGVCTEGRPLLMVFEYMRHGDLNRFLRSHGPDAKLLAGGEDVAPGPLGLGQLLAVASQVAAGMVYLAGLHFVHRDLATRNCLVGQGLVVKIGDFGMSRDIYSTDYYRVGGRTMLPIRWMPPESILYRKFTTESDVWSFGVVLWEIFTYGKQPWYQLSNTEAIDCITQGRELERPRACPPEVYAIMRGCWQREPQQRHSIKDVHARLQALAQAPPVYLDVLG

[11] = target: human TrkA expressed on transfected cells (4-3.6 cells; NIH3T3-TrkA cells) (human) (UniProt P04629); assay: FACScan, 4-3.6 cells, avidin-FITC
[12] = target: p75 NGF receptor on B104 rat neuroblastoma cells and 4-3.6 cells (rat) (UniProt P07174); assay: FACScan, B104 cells (p75+ TrkA-), D3-biotin 20 µM with 10-fold molar excess of D3, avidin-FITC
[13] = target: human TrkA expressed on transfected cells (4-3.6 cells; NIH3T3-TrkA cells) (human) (UniProt P04629); assay: estimated from FACScan competition against mAb 5C3 on 4-3.6 cells
[14] = target: recombinant baculovirus TrkA-extracellular domain protein (TrkA-ECD) (UniProt P04629); assay: competition ELISA, mAb 5C3 2 nM on immobilized TrkA-ECD, competitor D3 20 µM
recombinant baculovirus TrkA-extracellular domain protein (TrkA-ECD), sequence (P04629 33-423 limits assumed): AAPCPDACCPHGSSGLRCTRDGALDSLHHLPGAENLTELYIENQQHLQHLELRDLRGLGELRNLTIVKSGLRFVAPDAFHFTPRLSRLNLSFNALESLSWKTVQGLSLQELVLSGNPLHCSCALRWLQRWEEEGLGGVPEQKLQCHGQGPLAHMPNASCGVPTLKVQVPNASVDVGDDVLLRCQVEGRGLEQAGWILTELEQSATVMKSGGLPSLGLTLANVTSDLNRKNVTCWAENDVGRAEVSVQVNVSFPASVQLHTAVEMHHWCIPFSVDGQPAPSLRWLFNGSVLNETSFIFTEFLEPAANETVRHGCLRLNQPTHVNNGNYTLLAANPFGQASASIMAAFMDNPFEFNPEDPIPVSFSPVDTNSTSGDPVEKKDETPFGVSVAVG

[15] = target: recombinant baculovirus TrkA-extracellular domain protein (TrkA-ECD) (UniProt P04629); assay: competition ELISA, mAb 5C3 2 nM on immobilized TrkA-ECD, competitor D3 1 µM
[16] = target: recombinant baculovirus TrkA-extracellular domain protein (TrkA-ECD) (UniProt P04629); assay: competition ELISA, mAb 5C3 2 nM on immobilized TrkA-ECD, competitor D3 40 µM
[17] = target: human TrkA expressed on transfected cells (4-3.6 cells; NIH3T3-TrkA cells) (human) (UniProt P04629); assay: FACScan competition, 4-3.6 cells, mAb 5C3 1 nM, competitor D3 0.20 µM
[18] = target: p75 NGF receptor on B104 rat neuroblastoma cells and 4-3.6 cells (rat) (UniProt P07174); assay: FACScan competition, 4-3.6 cells, mAb MC192 1 nM, competitor D3 40 µM
[19] = target: human TrkA expressed on transfected cells (4-3.6 cells; NIH3T3-TrkA cells) (human) (UniProt P04629); assay: FACScan, 4-3.6 cells (p75+ TrkA+), D3-biotin 20 µM with 10-fold molar excess of D3, avidin-FITC
[20] = target: recombinant baculovirus TrkA-extracellular domain protein (TrkA-ECD) (UniProt P04629); assay: competition ELISA, mAb 5C3 2 nM on immobilized TrkA-ECD, competitor D3 0.05 µM
[21] = target: human TrkA expressed on transfected cells (4-3.6 cells; NIH3T3-TrkA cells) (human) (UniProt P04629); assay: FACScan competition, 4-3.6 cells, mAb 5C3 1 nM, competitor D3 1 µM
[22] = target: human TrkA expressed on transfected cells (4-3.6 cells; NIH3T3-TrkA cells) (human) (UniProt P04629); assay: FACScan competition, 4-3.6 cells, mAb 5C3 1 nM, competitor D3 40 µM
[23] = target: human TrkA expressed on transfected cells (4-3.6 cells; NIH3T3-TrkA cells) (human) (UniProt P04629); assay: FACScan competition, 4-3.6 cells, mAb 5C3 1 nM, competitor D3 5 µM
[24] = target: TrkA on primary rat embryonic neurons (DRG and septal cultures) (rat, UniProt P35739 33-799); assay: cell-based or functional assay
TrkA on primary rat embryonic neurons (DRG and septal cultures), sequence (P35739 33-799): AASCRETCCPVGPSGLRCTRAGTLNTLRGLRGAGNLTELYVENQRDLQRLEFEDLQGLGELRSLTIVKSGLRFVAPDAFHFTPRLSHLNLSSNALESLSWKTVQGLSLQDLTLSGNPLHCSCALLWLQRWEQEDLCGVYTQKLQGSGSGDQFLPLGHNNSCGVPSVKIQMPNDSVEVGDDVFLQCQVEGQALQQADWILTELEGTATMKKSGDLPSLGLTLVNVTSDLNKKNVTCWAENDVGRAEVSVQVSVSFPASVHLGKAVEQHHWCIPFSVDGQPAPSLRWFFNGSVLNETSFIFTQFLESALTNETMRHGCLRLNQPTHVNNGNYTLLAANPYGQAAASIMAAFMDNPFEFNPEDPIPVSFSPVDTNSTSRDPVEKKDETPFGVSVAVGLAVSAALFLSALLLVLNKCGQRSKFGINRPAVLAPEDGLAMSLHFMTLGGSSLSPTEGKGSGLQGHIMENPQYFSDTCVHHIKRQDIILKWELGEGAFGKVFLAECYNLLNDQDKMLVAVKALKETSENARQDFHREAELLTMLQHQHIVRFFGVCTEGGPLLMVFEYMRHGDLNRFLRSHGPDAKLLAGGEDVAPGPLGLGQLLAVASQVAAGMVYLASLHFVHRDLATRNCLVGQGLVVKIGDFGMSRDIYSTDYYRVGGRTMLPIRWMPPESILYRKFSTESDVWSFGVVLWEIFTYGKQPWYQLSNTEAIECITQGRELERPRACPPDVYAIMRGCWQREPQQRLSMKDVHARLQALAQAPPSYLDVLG

[25] = target: recombinant baculovirus TrkA-extracellular domain protein (TrkA-ECD) (UniProt P04629); assay: calculated from competition ELISA against mAb 5C3 on immobilized TrkA-ECD
[26] = target: human TrkA expressed on transfected cells (4-3.6 cells; NIH3T3-TrkA cells) (human) (UniProt P04629); assay: cell-based or functional assay
[27] = target: recombinant baculovirus TrkA-extracellular domain protein (TrkA-ECD) (UniProt P04629); assay: competition ELISA, mAb 5C3 2 nM on immobilized TrkA-ECD, competitor D3 0.2 µM
[28] = target: recombinant baculovirus TrkA-extracellular domain protein (TrkA-ECD) (UniProt P04629); assay: competition ELISA, mAb 5C3 2 nM on immobilized TrkA-ECD, competitor D3 5 µM

In the case of “NGF: neurotrophin nerve growth factor, natural ligand of TrkA”, the protection from apoptosis [1] is reported as “neither D3 nor NGF protected”, the “NIH wt % Protection” value ([2]; 10 pM NGF) is reported as 5 ± 7% and 3 ± 5% and the “NIH wt % Protection” value ([2]; 1 nM NGF) is reported as 5 ± 12% and 4 ± 6%. For the same molecule, the “ChAT Activity” value ([3]; 10 pM NGF) was 0.42 ± 0.07 pmol Ach/min/well, the “ChAT Activity” value ([3]; 400 pM NGF) was 0.72 ± 0.10 pmol Ach/min/well and the protection from apoptosis [4] was “neither D3 nor NGF protected”. The protection from apoptosis [5] was “neither D3 nor NGF protected”, the “biological activity in trophic assays after enzymatic treatment” value [6] was “lost all activity within minutes” and the “% Protection” value ([7]; NGF 20 pM) was 9 ± 1%. The “Optical Density” value ([7]; NGF 20 pM) was 316 ± 11, the “% Protection” value ([7]; NGF 500 pM) was 68 ± 3% and the “Optical Density” value ([7]; NGF 500 pM) was 535 ± 19. For the same molecule, the “Optical Density” value ([7]; NGF 1 nM) was 823 ± 28, the “% Protection” value ([7]; NGF 1 nM, relative to 1 nM NGF) was 100 ± 4% and the “NIH-TrkC % Protection” value ([8]; 10 pM NGF) was 2 ± 4%. For the same molecule, the “NIH-TrkC % Protection” value ([8]; 1 nM NGF) was 5 ± 6%.

Work on “D3-biotin (biotin derivative of D3) (peptide)” yielded an MCF [9] of 10 MCF, an MCF [10] of 53 MCF and a fold fluorescence over control peptide-biotin [11] of 4 fold.

For {5‑nitrobenzoyl}-EK[hSer]G-OH (bridge N-3) [D3 (EKHse-G-OH), β-turn peptidomimetic cyclic compound], the MCF of D3-biotin in the presence of competitor D3 [12] was 11 MCF, the Kd [13] was 2000 nM and the % Binding of mAb 5C3 [14] was 38%. The % Binding of mAb 5C3 [15] was 64%, the % Binding of mAb 5C3 [16] was 31% and the % Maximal binding of mAb 5C3 [17] was 95%. It also gave a % Maximal binding of mAb MC192 [18] of 101%, an MCF of D3-biotin in the presence of competitor D3 [19] of 17 MCF and a % Binding of mAb 5C3 [20] of 100%. The % Maximal binding of mAb 5C3 [21] was 80%, the % Maximal binding of mAb 5C3 [22] was 33% and the % Maximal binding of mAb 5C3 [23] was 53%. For the same molecule, the “ChAT Fold Increase, 0.2 µM D3” value [24] was 1.23 fold, the “ChAT Fold Increase, 0.2 µM D3 + 10 pM NGF” value [24] was 2 fold and the “ChAT Fold Increase, 2 µM D3” value [24] was 1.47 fold. For the same molecule, the “ChAT Fold Increase, 2 µM D3 + 10 pM NGF” value [24] was 2.53 fold, the “ChAT Fold Increase, 20 µM D3” value [24] was 1.56 fold and the “ChAT Fold Increase, 20 µM D3 + 10 pM NGF” value [24] was 2.63 fold. For the same molecule, the Kd [25] was 2000 nM, the % Protection (MTT, 4-3.6 cells), 10 µM D3 [26] was 8% and the % Protection (MTT, 4-3.6 cells), 10 µM D3 + 10 pM NGF [26] was 55%. For the same molecule, the % Protection (MTT, NIH-TrkA), 10 µM D3 [26] was 8%, the % Protection (MTT, NIH-TrkA), 10 µM D3 + 10 pM NGF [26] was 51% and the Optical Density (MTT survival, 4-3.6 cells), 10 µM D3 [26] was 95 OD. The Optical Density (MTT survival, 4-3.6 cells), 10 µM D3 + 10 pM NGF [26] was 255 OD, the intensity of the Mr 300 kDa band (putative TrkA·TrkA dimers) after cross-linking, standardized to 1 nM NGF (100%), 10 pM NGF + 10 µM D3 [26] was 77% and the intensity of the Mr 300 kDa band (putative TrkA·TrkA dimers) after cross-linking, standardized to 1 nM NGF (100%), 10 µM D3 alone [26] was 21%. It also gave a % Binding of mAb 5C3 [27] of 89% and a % Binding of mAb 5C3 [28] of 43%.
